# Test results published in PMC4470572 (Nature communications, 2014).
# B1: DIC1-eGFP-3xFLAG (dynein intermediate chain 1) (natural protein, mouse, UniProt O88485 1-628, looked up)
# chain: MSDKSDLKAELERKKQRLAQIREEKKRKEEERKKKEADMQQKKEPVQDDSDLDRKRRETEALLQSIGISPEPPLVPTPMSPSSKSVSTPSDAGSQDSGDLGPLTRTLQWDTDPSVLQLQSDSELGRRLHKLGVSKVTQVDFLPREVVSYSKETQTPLATHQSEEDEEDEEMVEPKIGHDSELENQEKKQETKEAPPRELTEEEKQQILHSEEFLIFFDRTIRVIERALAEDSDIFFDYSGRELEEKDGDVQAGANLSFNRQFYDEHWSKHRVVTCMDWSLQYPELMVASYSNNEDAPHEPDGVALVWNMKFKKTTPEYVFHCQSSVMSVCFARFHPNLVVGGTYSGQIVLWDNRSHRRTPVQRTPLSAAAHTHPVYCVNVVGTQNAHNLITVSTDGKMCSWSLDMLSTPQESMELVYNKSKPVAVTGMAFPTGDVNNFVVGSEEGTVYTACRHGSKAGIGEVFEGHQGPVTGINCHMAVGPIDFSHLFVTSSFDWTVKLWTTKHNKPLYSFEDNADYVYDVMWSPVHPALFACVDGMGRLDLWNLNSDTEVPTASVAIEGASALNRVRWAQGGKEVAVGDSEGRIWIYDVGELAVPHNDEWTRFARTLVEIRANRADSEEEGAVELAA
# Molecular target: the molecule itself
# Assay: single-molecule photobleaching step analysis
protein,measurement,value
B1,stoichiometry N,2
